Measurements reported in patent publication US20170281764A1 (JN BIOSCIENCES, published 2017).

Columns and labels:
[1] = biological target: T1, extracellular region of human TIGIT fused to FLAG and GPI (hTIGIT-GPI), on the surface of NS0 cells (human); assay: flow cytometry, competition with hCD155-Fc for NS0-hTIGIT cells
T1 construct: The GPI signal is processed when the anchor is attached; also called NS0-hTIGIT cells
T1 chain: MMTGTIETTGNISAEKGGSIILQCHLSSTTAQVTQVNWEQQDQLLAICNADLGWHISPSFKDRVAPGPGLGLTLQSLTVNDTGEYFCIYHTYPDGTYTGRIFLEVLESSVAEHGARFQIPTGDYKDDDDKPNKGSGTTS
Procedure: The activity of TIG1, TIG2 and TIG3 to block the interaction between TIGIT and CD155 was analyzed by flow cytometry. NS0-hTIGIT cells were incubated with a sub-saturating concentration of hCD155-Fc in the presence (or absence) of various concentrations of an anti-TIGIT monoclonal antibody as a competitor. Detection of hCD155-Fc bound to NS0-hTIGIT cells was performed with DyLight488-labeled goat anti-human IgG, Fc-specific antibody (Jackson ImmunoResearch, West Grove, Pa.).

[2] = biological target: T2, TIGIT-Fc fusion protein with the Q35A mutation (human); assay: ELISA on captured mutant TIGIT-Fc
T2 construct: the entry already carries the mutation; also called pFCm179-Q35A product
Procedure: (§1) Binding of each of mouse TIG1, TIG2 and TIG3 antibodies to the TIGIT mutants was examined by ELISA. An ELISA plate was coated with 100 μl/well of goat anti-human IgG Fc-specific polyclonal antibody (Sigma-Aldrich), 1/2,000-diluted in PBS at 4° C. overnight, washed with Wash Buffer, and blocked with 200 μl/well ELISA Buffer for 20 min at room temperature. After washing with Wash Buffer, 0.5 μg/ml of transiently expressed TIGIT-Fc fusion proteins, carrying either the wild-type TIGIT or one of the six TIGIT mutants, in ELISA Buffer (100 μl/well) were applied to the ELISA plate in duplicates for incubation at room temperature for 30 min. As a negative control, culture supernatants of untransfected HEK293 cells were used. After washing with Wash Buffer, 100 μl/well of 200 ng/ml of a test antibody (TIG1, TIG2 or TIG3) in ELISA Buffer (100 μl/well) was applied. After incubating the ELISA plate for 30 min at room temperature and washing with Wash Buffer, bound antibodies were detected using 100 μl/well of HRP-conjugated goat anti-mouse kappa chain polyclonal antibody (Bethyl Laboratories, Montgomery, Tex.), 1/2,000-diluted in ELISA Buffer. After incubating the plate for 0.5 hr at room temperature and washing with Wash Buffer, color development was initiated by adding 100 μl/well of ABTS substrate (Sigma-Aldrich) and stopped with 100 μl/well of 2% oxalic acid. Absorbance was read at 405 nm.
(§2) For each of TIG1, TIG2 and TIG3, the relative binding to each TIGIT mutant was calculated in the following formula. The average absorbance with the wild type TIGIT-Fc fusion proteins [Abs A] was normalized to 100%, and the average absorbance with culture supernatants of untransfected HEK293 cells [Abs B] was normalized to 0%. The average absorbance with a mutant TIGIT-Fc fusion protein [Abs C] was normalized by the following formula: 100×([Abs C]−[Abs B])/([Abs A]−[Abs B]). […] None of the TIGIT mutants used in this assay abolished the binding of TIG2 and TIG3 to TIGIT.

[3] = biological target: T3, TIGIT-Fc fusion protein with the D51A mutation (human); assay: ELISA on captured mutant TIGIT-Fc
T3 construct: also called pFCm179-D51A product
Procedure: as §1, §2

[4] = biological target: T4, TIGIT-Fc fusion protein with the N37A mutation (human); assay: ELISA on captured mutant TIGIT-Fc
T4 construct: also called pFCm179-N37A product
Procedure: as §1, §2

[5] = biological target: T5, human TIGIT on cells (Jurkat-TIGIT cells; human T cells, NK cells and other blood cells) (human, UniProt Q495A1 22-244); assay: cell-based or functional assay
T5 sequence: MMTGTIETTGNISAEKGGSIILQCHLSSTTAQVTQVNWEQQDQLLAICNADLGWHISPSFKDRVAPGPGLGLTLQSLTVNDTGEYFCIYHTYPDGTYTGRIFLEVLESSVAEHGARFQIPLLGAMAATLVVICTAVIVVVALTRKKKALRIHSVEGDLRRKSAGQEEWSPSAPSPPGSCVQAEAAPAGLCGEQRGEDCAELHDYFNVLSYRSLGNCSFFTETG

[6] = biological target: T6, extracellular region of human TIGIT fused to the Fc region of human immunoglobulin gamma-1 chain (hTIGIT-Fc) (human); assay: ELISA, hybridoma screening
T6 construct: also called human TIGIT-Fc fusion protein; wild-type TIGIT-Fc
Text: Mouse antibodies secreted in culture supernatants of hybridoma cells were subjected to a series of screening to identify the antibodies with the following properties: (1) binding to purified hTIGIT-Fc fusion protein, (2) binding to NS0-hTIGIT cells, (3) non-binding to NS0 cells, (4) binding to CD3+ T cells derived from phytohemagglutinin-treated human peripheral blood mononuclear cells and (5) blocking of the binding of hCD155-Fc fusion protein to NS0-hTIGIT cells. The first property to bind to hTIGIT-Fc was tested by ELISA using HRP-conjugated goat antibodies against mouse kappa and lambda light chains (SouthernBiotech, Birmingham, Ala.) for identification of mouse anti-TIGIT antibodies. The second, third and fourth properties were examined by flow cytometry using PE-labeled goat anti-mouse gamma chain antibody (SouthernBiotech) for detection of cell-bound mouse antibodies. The fifth property was analyzed by flow cytometry as described below. […] TIG1, TIG2 and TIG3 monoclonal antibodies were purified from culture supernatant of hybridoma cells by protein A column chromatography as described above. The isotypes of TIG1, TIG2 and TIG3 are mouse IgG2b/kappa, IgG2a/kappa and IgG2a/kappa, respectively.

[7] = biological target: T2, TIGIT-Fc fusion protein with the Q35A …; assay: ELISA, mutant TIGIT-Fc captured by anti-human Fc, antibody at 200 ng/ml, wild type TIGIT-Fc = 100 %
Procedure: as §1, §2

[8] = biological target: T3, TIGIT-Fc fusion protein with the D51A …; assay: as above
Procedure: as §1, §2

[9] = biological target: T7, TIGIT-Fc fusion protein with the N49A mutation (human); assay: as above
T7 construct: also called pFCm179-N49A product
Procedure: as §1, §2

[10] = biological target: T8, TIGIT-Fc fusion protein with the F86A mutation (human); assay: as above
T8 construct: also called pFCm179-F86A product
Procedure: as §1, §2

[11] = biological target: T4, TIGIT-Fc fusion protein with the N37A …; assay: as above
Procedure: as §1, §2

[12] = biological target: TIGIT-Fc fusion protein with the E39A mutation (printed Q39A in the text) (human); assay: as above
Procedure: as §1, §2

B1: TIG1 mouse anti-human TIGIT monoclonal antibody (antibody, mouse IgG2b, V domains shown)
VH: DVQLVESGGGLVQPGGSRKLSCAASGFTFSNFGMHWVRQAPEKGLEWVAFISSGSSSIYYADTVKGRFTISRDNPKNTLFLQMTSLRSEDTAMYYCARMRLDYYAMDYWGQGTSVTVSS
VL: DVQITQSPSYLAASPGETITINCRASKSISKYLAWYQEKPGKTNKLLIYSGSTLQSGIPSRFSGSGSGTDFTLTISSLEPEDFAMYYCQQHNEYPWTFGGGTKLEIK
notes: also called anti-TIGIT antibody (TIG1)
[1]
  IC50: 0.049 µg/mL
[2]
  binding result: no binding
[3]
  binding result: no binding
[4]
  binding result: no binding
[5]
  enhancement of NK cell mediated natural cytotoxicity of K562 cells: 2 fold
[6]
  binding result: binds
[7]
  Relative binding to TIGIT (%): -0.1%
[8]
  Relative binding to TIGIT (%): 1.8%
[9]
  Relative binding to TIGIT (%): 0.5%
[10]
  Relative binding to TIGIT (%): 49.5%
[11]
  Relative binding to TIGIT (%): 0.8%
[12]
  Relative binding to TIGIT (%): 71.1%
